Data: patent US20230406885A1, “CYCLIC PEPTIDES FOR TRAPPING INTERLEUKIN-1 BETA” (MERCK SHARP & DOHME LLC, priority 2022, published 2023)
*1 amine or outer side, *2 acyl side, *3 side chain or, on linkers, in order; H or OH if unused. [ ]: non-standard residue; d: D form. F4bcpA = 3-[4-[(S)-2-amino-2-carboxyethyl]phenyl]bicyclo[1.1.1]pentane-1-carboxylic acid, O=C([C@H](Cc1ccc(C23CC(C(=O)[*:3])(C2)C3)cc1)N[*:1])[*:2]; dDabMe3 = [(R)-3-amino-3-carboxypropyl]-trimethylazanium, C[N+](C)(C)CC[C@@H](N[*:1])C(=O)[*:2]; F4pcCCA = (1R,4s)-4-(4-((S)-2-amino-2-carboxyethyl)phenyl)cyclohexane-1-carboxylic acid; Phe(4-(trans-4-COOH-cHex)) = N[C@@H](Cc1ccc([C@H]2CC[C@H](C(=O)O)CC2)cc1)C(=O)O; Pro(trans-4-NH2) = O=C([C@@H]1C[C@@H](N[*:3])CN1[*:1])[*:2]; Trp(βS-Me,4-F) = C[C@@H](c1c[nH]c2cccc(F)c12)[C@H](N)C(=O)O; Bip(4'-COOH) = N[C@@H](Cc1ccc(-c2ccc(C(=O)O)cc2)cc1)C(=O)O; 1Nal(3S-Me) = C[C@@H](c1cccc2ccccc12)[C@H](N)C(=O)O; Ala(indazol-1-yl) = N[C@@H](Cn1ncc2ccccc21)C(=O)O; Phe(4-COOH) = N[C@@H](Cc1ccc(C(=O)O)cc1)C(=O)O; Trp(6-F) = N[C@@H](Cc1c[nH]c2cc(F)ccc12)C(=O)O; Trp(7-Me) = Cc1cccc2c(C[C@H](N)C(=O)O)c[nH]c12; hTyr = N[C@@H](CCc1ccc(O)cc1)C(=O)O; hCha = N[C@@H](CCC1CCCCC1)C(=O)O; 4Pal = N[C@@H](Cc1ccncc1)C(=O)O; Cha = N[C@@H](CC1CCCCC1)C(=O)O; dDab = NCC[C@@H](N)C(=O)O; dNMeA = CN[C@H](C)C(=O)O

B1: SEQ ID NO: 186 (Example No. 186) (peptide)
peptide: cyclo([Bip(4'-COOH)][Trp(7-Me)][Phe(4-COOH)]G[Pro(trans-4-NH2)][Trp(βS-Me,4-F)]D[dNMeA]G[Bip(4'-COOH)]KL[dA][hTyr])
SMILES: Cc1cccc2c(C[C@@H]3NC(=O)[C@H](Cc4ccc(-c5ccc(C(=O)O)cc5)cc4)NC(=O)[C@H](CCc4ccc(O)cc4)NC(=O)[C@@H](C)NC(=O)[C@H](CC(C)C)NC(=O)[C@H](CCCCN)NC(=O)[C@H](Cc4ccc(-c5ccc(C(=O)O)cc5)cc4)NC(=O)CNC(=O)[C@@H](C)N(C)C(=O)[C@H](CC(=O)O)NC(=O)[C@H]([C@@H](C)c4c[nH]c5cccc(F)c45)NC(=O)[C@@H]4C[C@@H](N)CN4C(=O)CNC(=O)[C@H](Cc4ccc(C(=O)O)cc4)NC3=O)c[nH]c12
B2: SEQ ID NO: 187 (Example No. 187) (peptide)
peptide: cyclo([Bip(4'-COOH)]W[Phe(4-COOH)]G[Pro(trans-4-NH2)][Trp(βS-Me,4-F)]D[dNMeA]G[Bip(4'-COOH)]KL[dK](Ac)[hTyr])
SMILES: CC(=O)NCCCC[C@H]1NC(=O)[C@H](CC(C)C)NC(=O)[C@H](CCCCN)NC(=O)[C@H](Cc2ccc(-c3ccc(C(=O)O)cc3)cc2)NC(=O)CNC(=O)[C@@H](C)N(C)C(=O)[C@H](CC(=O)O)NC(=O)[C@H]([C@@H](C)c2c[nH]c3cccc(F)c23)NC(=O)[C@@H]2C[C@@H](N)CN2C(=O)CNC(=O)[C@H](Cc2ccc(C(=O)O)cc2)NC(=O)[C@H](Cc2c[nH]c3ccccc23)NC(=O)[C@H](Cc2ccc(-c3ccc(C(=O)O)cc3)cc2)NC(=O)[C@H](CCc2ccc(O)cc2)NC1=O
B3: SEQ ID NO: 188 (Example No. 188) (peptide)
peptide: cyclo([F4bcpA]W[Phe(4-COOH)]G[Pro(trans-4-NH2)][1Nal(3S-Me)]D[dNMeA]G[Bip(4'-COOH)][Ala(indazol-1-yl)]G[dDab][hCha])
SMILES: C[C@@H]1C(=O)NCC(=O)N[C@@H](Cc2ccc(-c3ccc(C(=O)O)cc3)cc2)C(=O)N[C@@H](Cn2ncc3ccccc32)C(=O)NCC(=O)N[C@H](CCN)C(=O)N[C@@H](CCC2CCCCC2)C(=O)N[C@@H](Cc2ccc(C34CC(C(=O)O)(C3)C4)cc2)C(=O)N[C@@H](Cc2c[nH]c3ccccc23)C(=O)N[C@@H](Cc2ccc(C(=O)O)cc2)C(=O)NCC(=O)N2C[C@H](N)C[C@H]2C(=O)N[C@@H]([C@@H](C)c2cccc3ccccc23)C(=O)N[C@@H](CC(=O)O)C(=O)N1C
B4: SEQ ID NO: 189 (Example No. 189) (peptide)
peptide: cyclo([F4bcpA]W[Phe(4-COOH)]G[Pro(trans-4-NH2)][1Nal(3S-Me)]D[dNMeA]G[Bip(4'-COOH)][Cha]G[dDab][hCha])
SMILES: C[C@@H]1C(=O)NCC(=O)N[C@@H](Cc2ccc(-c3ccc(C(=O)O)cc3)cc2)C(=O)N[C@@H](CC2CCCCC2)C(=O)NCC(=O)N[C@H](CCN)C(=O)N[C@@H](CCC2CCCCC2)C(=O)N[C@@H](Cc2ccc(C34CC(C(=O)O)(C3)C4)cc2)C(=O)N[C@@H](Cc2c[nH]c3ccccc23)C(=O)N[C@@H](Cc2ccc(C(=O)O)cc2)C(=O)NCC(=O)N2C[C@H](N)C[C@H]2C(=O)N[C@@H]([C@@H](C)c2cccc3ccccc23)C(=O)N[C@@H](CC(=O)O)C(=O)N1C
B5: SEQ ID NO: 190 (Example No. 190) (peptide)
peptide: cyclo([F4bcpA]W[Phe(4-COOH)]G[Pro(trans-4-NH2)][1Nal(3S-Me)]D[dNMeA]G[Bip(4'-COOH)][Cha]G[dDab][hTyr])
SMILES: C[C@@H]1C(=O)NCC(=O)N[C@@H](Cc2ccc(-c3ccc(C(=O)O)cc3)cc2)C(=O)N[C@@H](CC2CCCCC2)C(=O)NCC(=O)N[C@H](CCN)C(=O)N[C@@H](CCc2ccc(O)cc2)C(=O)N[C@@H](Cc2ccc(C34CC(C(=O)O)(C3)C4)cc2)C(=O)N[C@@H](Cc2c[nH]c3ccccc23)C(=O)N[C@@H](Cc2ccc(C(=O)O)cc2)C(=O)NCC(=O)N2C[C@H](N)C[C@H]2C(=O)N[C@@H]([C@@H](C)c2cccc3ccccc23)C(=O)N[C@@H](CC(=O)O)C(=O)N1C
B6: SEQ ID NO: 192 (Example No. 192) (peptide)
peptide: cyclo([Phe(4-(trans-4-COOH-cHex))][Trp(6-F)][Phe(4-COOH)]G[Pro(trans-4-NH2)][1Nal(3S-Me)]D[dNMeA]G[Bip(4'-COOH)][4Pal]G[dDab][hCha])
SMILES: C[C@@H]1C(=O)NCC(=O)N[C@@H](Cc2ccc(-c3ccc(C(=O)O)cc3)cc2)C(=O)N[C@@H](Cc2ccncc2)C(=O)NCC(=O)N[C@H](CCN)C(=O)N[C@@H](CCC2CCCCC2)C(=O)N[C@@H](Cc2ccc([C@H]3CC[C@H](C(=O)O)CC3)cc2)C(=O)N[C@@H](Cc2c[nH]c3cc(F)ccc23)C(=O)N[C@@H](Cc2ccc(C(=O)O)cc2)C(=O)NCC(=O)N2C[C@H](N)C[C@H]2C(=O)N[C@@H]([C@@H](C)c2cccc3ccccc23)C(=O)N[C@@H](CC(=O)O)C(=O)N1C
B7: SEQ ID NO: 193 (Example No. 193) (peptide)
peptide: cyclo([Phe(4-(trans-4-COOH-cHex))][Trp(6-F)][Phe(4-COOH)]G[Pro(trans-4-NH2)][1Nal(3S-Me)]D[dNMeA]G[Bip(4'-COOH)][4Pal]S[dDab][hCha])
SMILES: C[C@@H]1C(=O)NCC(=O)N[C@@H](Cc2ccc(-c3ccc(C(=O)O)cc3)cc2)C(=O)N[C@@H](Cc2ccncc2)C(=O)N[C@@H](CO)C(=O)N[C@H](CCN)C(=O)N[C@@H](CCC2CCCCC2)C(=O)N[C@@H](Cc2ccc([C@H]3CC[C@H](C(=O)O)CC3)cc2)C(=O)N[C@@H](Cc2c[nH]c3cc(F)ccc23)C(=O)N[C@@H](Cc2ccc(C(=O)O)cc2)C(=O)NCC(=O)N2C[C@H](N)C[C@H]2C(=O)N[C@@H]([C@@H](C)c2cccc3ccccc23)C(=O)N[C@@H](CC(=O)O)C(=O)N1C
B8: SEQ ID NO: 194 (Example No. 194) (peptide)
peptide: cyclo([Phe(4-(trans-4-COOH-cHex))][Trp(6-F)][Phe(4-COOH)]G[Pro(trans-4-NH2)][1Nal(3S-Me)]D[dNMeA]G[Bip(4'-COOH)][4Pal]S[dDabMe3][hCha])
SMILES: C[C@@H]1C(=O)NCC(=O)N[C@@H](Cc2ccc(-c3ccc(C(=O)O)cc3)cc2)C(=O)N[C@@H](Cc2ccncc2)C(=O)N[C@@H](CO)C(=O)N[C@H](CC[N+](C)(C)C)C(=O)N[C@@H](CCC2CCCCC2)C(=O)N[C@@H](Cc2ccc([C@H]3CC[C@H](C(=O)O)CC3)cc2)C(=O)N[C@@H](Cc2c[nH]c3cc(F)ccc23)C(=O)N[C@@H](Cc2ccc(C(=O)O)cc2)C(=O)NCC(=O)N2C[C@H](N)C[C@H]2C(=O)N[C@@H]([C@@H](C)c2cccc3ccccc23)C(=O)N[C@@H](CC(=O)O)C(=O)N1C

The binders below were run against Recombinant human IL-1β (BioLegend 579404) (human, UniProt P01584 117-269) (assay: cell-based or functional assay).

Row | Binder | MRC5 IC50 [nM]
1 | B1 | 0.038
2 | B2 | 0.009
3 | B3 | 0.016
4 | B4 | 0.019
5 | B5 | 0.018
6 | cyclo([F4pcCCA]W[Phe(4-COOH)]G[Pro(trans-4-NH2)][1Nal(3S-Me)]D[dNMeA]G[Bip(4'-COOH)][4Pal]G[dDab][hCha]) [SEQ ID NO: 191 (Example No. 191)] | 0.019
7 | B6 | 0.015
8 | B7 | 0.012
9 | B8 | 0.015
